Results as given in patent US20170226215A1 (SORRENTO THERAPEUTICS, published 2017).

Molecular target: T1, recombinant human CD137/Fc (human, UniProt Q07011 24-186)
T1 construct: Coated on the ELISA plate at 2 µg/mL; not shown: Fc part
Experiment: ELISA, plate coated with recombinant human CD137/Fc at 2 µg/mL, antibody at about 1 µg/mL (single concentration), HRP anti-human lambda, OD 450 nm
Experimental: A Maxisorp plate was coated with recombinant human CD137/Fc or mouse CD137/Fc at 2 μg/mL at 4° C., overnight. The plate was blocked for 1 hour at room temperature, washed 3 times with PBS-Tween (PBST), then anti-CD137 antibodies (˜1 μg/mL) diluted in casein were added and incubated for 30 min with shaking. The plate was washed 3 times with PBST, horseradish peroxidase (HRP)-conjugated mouse anti-human Lambda (1:1000 in casein) was added, then 3,3′,5,5′-Tetramethylbenzidine (TMB) was added as substrate and developed about 5 min. 2M H₂SO₄ was used to stop the reaction and the OD was read at 450 nm.

Binder | binding result
anti-CD137 antibody MB3 (antibody, V domains shown, IgG class, variant of D6) VH: QMQLVQSGAEVKKPGASVKVSCKASGYQMRGYYMHWVRQAPGQGLEWMGWINPNSGGTNYAQKFQGRVTITRDTSASTAYMELSSLRSEDTAVYYCAREGEAVGLDLDYWGQGTLVTVSS VL: SYELTQPPSVSVAPGKTARITCGGNNIGSKSVHWYQQKPGQAPVLVIYYDSDRPSGIPERFSGSNSGNTATLTISRVEAGDEADYYCQVWDSSSVVFGGGTQLTVL | binds
anti-CD137 antibody MB12 (antibody, V domains shown, IgG class, variant of D6) VH: QMQLVQSGAEVKKPGASVKVSCKASGYSLEGYYMHWVRQAPGQGLEWMGWINPNSGGTNYAQKFQGRVTITRDTSASTAYMELSSLRSEDTAVYYCAREGEAVGLDLDYWGQGTLVTVSS VL: SYELTQPPSVSVAPGKTARITCGGNNIGSKSVHWYQQKPGQAPVLVIYYDSDRPSGIPERFSGSNSGNTATLTISRVEAGDEADYYCQVWDSSSVVFGGGTQLTVL | binds
anti-CD137 antibody MSC8 (antibody, V domains shown, IgG class, variant of D6) VH: QMQLVQSGAEVKKPGASVKVSCKASGYNFGGYYMHWVRQAPGQGLEWMGWVNPKSGGTNYAQKFQGRVTITRDTSASTAYMELSSLRSEDTAVYYCAREGEAVGLDLDYWGQGTLVTVSS VL: SYELTQPPSVSVAPGKTARITCGGNNIGSKSVHWYQQKPGQAPVLVIYYDSDRPSGIPERFSGSNSGNTATLTISRVEAGDEADYYCQVWDSSSVVFGGGTQLTVL | binds
